Target: T1, mouse IFNα4 without tag (Mus musculus, UniProt P07351)
T1 construct: Expressed with an N-terminal mouse IgG signal peptide (HVM06_MOUSE) and a C-terminal TEV site before the tags; Produced in a glycosylation deficient cell line; also called Interferon α; not shown: Twin-Strep-tag, C-terminal, cleaved; His8, C-terminal, cleaved
Test: BLI; Octet Red96; αIFNα-ab covalently coupled (EDC/NHS) to Ni-NTA tips, increasing concentrations of IFNα4 in solution; kinetic buffer 0.2% BSA in PBS with 0.05% Tween 20; association 800 s, dissociation 1800 s; 1:1 interaction model
Conditions: both partners purified

T1 sequence (P07351 25-186): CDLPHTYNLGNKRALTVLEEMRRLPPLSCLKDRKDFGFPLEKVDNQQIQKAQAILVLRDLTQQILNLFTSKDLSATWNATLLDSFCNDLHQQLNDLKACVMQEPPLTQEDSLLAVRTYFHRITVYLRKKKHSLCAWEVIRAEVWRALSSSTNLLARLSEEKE

Kd: 38.6 nM
koff: 0.00023 s⁻¹
kon: 5970 M⁻¹ s⁻¹
B1: soluble scFv αIFNα-ab (scFv, V domains shown)
VH: EVQLVESGGGLVRPGGSLKLSCTASGFTFSDFDMAWVRQAPTRGLEWVASISSGPANTHYRGSVRGRFTGSRNDAKSTLYLQMDSLRSEDTATYYCARPFGSGYYFDYWGQGVVVTVSS
VL: DTVLTQSPALAVSLGQRVTISCKASESVSSSTSNYMHWYQQKPGQRPKLLIYLASNLESGVPARFSGSGSGTDFILNIDPVEADDVATYFCQQSWNDPPTFGSGTKVELK
notes: VH of the rat anti-mouse IFNα hybridoma antibody 4EA1; linker, printed as (GGGGS)3; VL (kappa) of the rat anti-mouse IFNα hybridoma antibody 4EA1; Order VH-(GGGGS)3-VL; made with a signal peptide (secreted); also called anti-IFNα scFv; soluble form of the intrabody; not shown: His6, C-terminal, kept

Reference: publication PMC6467385, “ER intrabody-mediated inhibition of interferon α secretion by mouse macrophages and dendritic cells” (PLoS ONE, 2019)
